Results on 17 sequences are retold here after the supplement of paper PMC9170038.

The subject of series [1] is MS2 coat protein. Nature of the series: apparent KD of MS2 coat protein, switch ON state; designed switch direction (-1 OFF switch, 1 ON switch): 1; higher = weaker reporter binding. Particulars: FMN input: 0 or 200 uM; Eterna round: R93 (includes R88 designs). The method, boiled down: (§1)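 Apparent KD per design is the median of normalised cluster binding-curve fits. Designed RNA switches transcribed on-chip from Illumina sequencing clusters were titrated with SNAP-549-labelled MS2 coat protein in twofold steps from 0.7 or 1.5 nM to 3 µM, with 0.8–1.5 h down to 10–20 min per step. Buffer: 100 mM Tris-HCl pH 7.5, 80 mM KCl, 4 mM MgCl2, without or with constant ligand.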

Series [2] relates to MS2 coat protein. Nature of the series: apparent KD of MS2 coat protein, switch OFF state (with FMN for OFF switches, without FMN for ON switches); designed switch direction (-1 OFF switch, 1 ON switch): 1; higher = weaker reporter binding. Conditions: FMN input: 0 or 200 uM; Eterna round: R93 (includes R88 designs). A digest of the protocol:
as §1

Regarding “AAAAAACAUGAGGAUCACCCAUGUCUUCGGACGUGAGGAUAUGUACAGACUUCGGUCUGUACAGAAGGCAUGAAAA [SS1 - 1058]”, the “apparent KD of MS2 coat protein” value with MS2 coat protein [1] is 176 nM; with MS2 coat protein [2], 381 nM.
As to “AAAAAACAUGAGGAUCACCCAUGUCUUUUGACAUGAGGAUAUGUACAGACUUCGGUCUGUACAGAAGGCAUGUAAA [SS1 - 1028]”, the “apparent KD of MS2 coat protein” value was found to be 31.1 nM with MS2 coat protein [1] and 397 nM in the series with MS2 coat protein [2].
As to “AAAAAACAUGAGGAUCACCCAUGUGAGAACAAGGGAGGAUAUACGAAGACGAAAGUCGAAGUAGAAGGCCUAAAAA [Garnet 81]”, the “apparent KD of MS2 coat protein” value came out at 23.3 nM with MS2 coat protein [1] and 46.6 nM in the series on MS2 coat protein [2].
“AAAAAAUAAAAAAAGGAUAUAAAUCCUAGAACAUGAGGAUCACCCAUGUACUAGGAAAAAAUAAAAAAGAAGGAAAAAUAAAAAA [SS2: MS2 19]”: the results for the “apparent KD of MS2 coat protein” value in the series with MS2 coat protein [1] and in the series on MS2 coat protein [2] were 18.1 nM and 17.3 nM, respectively.
“AAAAAAUAAAAAAAGGAUAUAAUGCUACAGACAUGAGGAUCACCCAUGUAGGUAGCAUUAAUAAAAAAGAAGGAAAAAUAAAAAA [SS2: MS2 32]”: the entries for the “apparent KD of MS2 coat protein” value with MS2 coat protein [1] and in the series with MS2 coat protein [2] were 9.09 nM and 15.3 nM, respectively.
Turning to “AAAACACAUGAGGAUCACCCAUGUAGAAAUACGGGAGGAUAUGCGAAAACGAAAGACAAAGUAGAAGGCCUAAAAG [saturn 8]”, the “apparent KD of MS2 coat protein” value was 35.9 nM with MS2 coat protein [1] and 69.8 nM in the series on MS2 coat protein [2].
On to “AAAAGACAUGAGGAUCACCCAUGUAAAAACAUAGGAGGAUAUGUCUGGAAACCAGACUGGACAGAAGGCCUUUGUC [SS1 - 63]”, for which the “apparent KD of MS2 coat protein” value in the series on MS2 coat protein [1] came to 24.8 nM; with MS2 coat protein [2], 29.4 nM.
As for “AAAAGACAUGAGGAUCACCCAUGUAAAAACGUAGGAGGAUAUGUCGUGAAAAAAGACUUGACAGAAGGCCUGUGUC [SS1 - 35]”, the “apparent KD of MS2 coat protein” value in the series with MS2 coat protein [1] was 25.9 nM; with MS2 coat protein [2], 39 nM.
For “AAAAGACAUGAGGAUCACCCAUGUCAAGACGUAGGAGGAUAUGUCUUGAAAAAAGACUUGACAGAAGGCCUGUGUC [SS1 - 55]”, the “apparent KD of MS2 coat protein” value was found to be 14.9 nM in the series with MS2 coat protein [1] and 18.1 nM with MS2 coat protein [2].
Take “AAAAGACAUGAGGAUCACCCAUGUCCUCGGACAUGAGGAUAUGUACAGACUUCGGUCUGUACAGAAGGCAUGAAAA [SS1 - 1064]”: the “apparent KD of MS2 coat protein” value in the series on MS2 coat protein [1] amounted to 52 nM; in the series on MS2 coat protein [2], 233 nM.
For “AAAAGACAUGAGGAUCACCCAUGUGAAAACGUAGGAGGAUAUGUCGUGAAAAAAGACUUGACAGAAGGCCUGUGUC [SS1 - 34]”, the “apparent KD of MS2 coat protein” value in the series with MS2 coat protein [1] is 28.1 nM; with MS2 coat protein [2], 63.5 nM.
For the sequence “AAAAUAAAAAGGUAGGAUAUGGGUAAGUCUACAUGAGGAUCACCCAUGUAAUAAAAAGAAAAAAACCAGAAGGACCAAAAUAAAA [72%, More Wateronthemoon, 11]”, the “apparent KD of MS2 coat protein” value in the series with MS2 coat protein [1] amounted to 20.2 nM; in the series with MS2 coat protein [2], 50.1 nM.
For “AAAAUAAAAUAAAAGGAUAUAAAAUAAAAAACAUGAGGAUCACCCAUGUAAAAACAUGGGUGAAAAAAGAAGGAAAAAUAAAAAA [SS2: 70 No MS2]”, the “apparent KD of MS2 coat protein” value turned out to be 36.7 nM in the series with MS2 coat protein [1] and 1.74 nM in the series on MS2 coat protein [2].
On to “AAAAUAAAAUAAAAGGAUAUAAAGAUAUAUACAUGAGGAUCACCCAUGUAUAUAUCAAUAAAAUAAAAGAAGGAAUAAAAAUAAA [SS2 510: MS2 10]”, for which the “apparent KD of MS2 coat protein” value in the series with MS2 coat protein [1] amounted to 14.8 nM; in the series on MS2 coat protein [2], 18 nM.
Regarding “AAAAUACAUGAGGAUCACCCAUGUGAAAAUAUGGAAGGAUAUCAUGGAAAAAAAAAAACAUGAGAAGGUCCAAAAA [SS! 1 MT 9]”, the “apparent KD of MS2 coat protein” value with MS2 coat protein [1] was determined as 22 nM; in the series on MS2 coat protein [2] it was 123 nM.
Turning to “AAAAUACAUGAGGAUCACCCAUGUGAAAAUAUGGGAGGAUAUACAAACACGAAAGUGAAAGUAGAAGGCCUAAAAA [SS! MT 15]”, the “apparent KD of MS2 coat protein” value in the series with MS2 coat protein [1] came to 51.6 nM; in the series with MS2 coat protein [2], 231 nM.
For the sequence “AAAAUACAUGAGGAUCACCCAUGUGAAAAUAUGGGAGGAUAUACCGAAAAAAAAAAAACGGUAGAAGGCCCUAAAA [SS! 1 MT 6]”, the results for the “apparent KD of MS2 coat protein” value with MS2 coat protein [1] and with MS2 coat protein [2] were 17.9 nM and 41.6 nM, respectively.
